Test results as given in the supplement of paper PMC10724198.
± gives the standard deviation of the averaged measurements.

Test system: Saccharomyces cerevisiae
Assay: protein stability index of tFT-peptide fusion (C-terminal peptide) (PSI (0-1 scale)); higher = more stable (slower turnover)
Conditions: genetic background: wild type; temperature: 30 C
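Note: PSI is a weighted mean of sequencing reads over stability bins, variants kept only with over 10 reads, mCherry proximal and sfGFP distal, peptide attached via GGGS linker.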

QNKTKDQKQRRQ
protein stability index: 0.697 ± 0.028

QNNTRQQRKTPR
protein stability index: 0.683 ± 0.022

QNSDDFLITDTY
protein stability index: 0.643 ± 0.1

QPGGTHDLGGTG
protein stability index: 0.61 ± 0.012

QPGPKTTYLEEA
protein stability index: 0.686 ± 0.014

QPPLPTRLNHRQ
protein stability index: 0.651 ± 0.045

QPQRSRLRQQNT
protein stability index: 0.734 ± 0.081

QPRVSTSGHSAR
protein stability index: 0.722 ± 0.016

QPYHSSPSPRTI
protein stability index: 0.717 ± 0.073

QQCVTGKSFYGI
protein stability index: 0.856 ± 0.14

QQLPPARLPRRP
protein stability index: 0.745 ± 0.012

QRFVKIRGLEKI
protein stability index: 0.693 ± 0.026

QRGCEAKRGGEG
protein stability index: 0.628 ± 0.014

QRSQASIPGQEV
protein stability index: 0.579 ± 0.091

QSAPPPLPPRRR
protein stability index: 0.69 ± 0.03

QSARMRRKSNLP
protein stability index: 0.674 ± 0.028

QSLITVETRIGS
protein stability index: 0.651 ± 0.045

QSPATIPFASHR
protein stability index: 0.731 ± 0.014

QSPRRQLEGKLE
protein stability index: 0.619 ± 0.046

QTDHINKTTAKI
protein stability index: 0.684 ± 0.021

QTGQVSRVSPHD
protein stability index: 0.672 ± 0.031

QTHRFLHVGKSL
protein stability index: 0.621 ± 0.043

QTLNTKEKREKE
protein stability index: 0.727 ± 0.025

QTYNKRKGAIRA
protein stability index: 0.616 ± 0.016

QVLFTPLLNVTK
protein stability index: 0.754 ± 0.05

QVTLPHSSLLGW
protein stability index: 0.6749 ± 0.0028

QVWLEKDPQETA
protein stability index: 0.691 ± 0.016

QYFRKRVLKELP
protein stability index: 0.671 ± 0.074

QYGVSIRRDSRP
protein stability index: 0.642 ± 0.035

RADAPPPTRPEA
protein stability index: 0.744 ± 0.011

RAGSLRFRVILY
protein stability index: 0.635 ± 0.026

RAHWGEFGYSLF
protein stability index: 0.716 ± 0.018

RAILTVVRGHLE
protein stability index: 0.668 ± 0.0086

RAITPRHKRLVG
protein stability index: 0.6934 ± 0.0031

RAKCELVHGLRT
protein stability index: 0.65 ± 0.026

RAKGGFDPKCYS
protein stability index: 0.749 ± 0.076

RAKSTFRVHSHM
protein stability index: 0.6645 ± 0.005

RAKVEQTGQKTV
protein stability index: 0.707 ± 0.011

RALLSPFYRFYV
protein stability index: 0.5956 ± 0.003

RALNRVWLSRRV
protein stability index: 0.607 ± 0.02

RALSLLSLLLNR
protein stability index: 0.696 ± 0.022

RAMLWGPCYRGI
protein stability index: 0.656 ± 0.021

RAPFLSRACCSR
protein stability index: 0.648 ± 0.013

RAPPPPARPALP
protein stability index: 0.687 ± 0.028

RARAIGVGAGRG
protein stability index: 0.691 ± 0.019

RARPGRACPGAP
protein stability index: 0.755 ± 0.0097

RARVGGRQLRRV
protein stability index: 0.753 ± 0.15

RARVVRRWDTCG
protein stability index: 0.697 ± 0.086

RASTRGIMISKS
protein stability index: 0.706 ± 0.034

RATLGVSGRCWV
protein stability index: 0.6802 ± 0.001

RAVHSSPHVSLS
protein stability index: 0.681 ± 0.013

RAVKLHIIIFDG
protein stability index: 0.551 ± 0.025

RAVSGSLSFLLR
protein stability index: 0.721 ± 0.014

RAWELPRLRGRD
protein stability index: 0.743 ± 0.076

RAWHFWVCGWRV
protein stability index: 0.607 ± 0.041

RCAGCFDSAFSW
protein stability index: 0.746 ± 0.012

RCFSLFYIYCPA
protein stability index: 0.525 ± 0.0065

RCGVAGVVCGSG
protein stability index: 0.615 ± 0.039

RCKCGDALTVIH
protein stability index: 0.691 ± 0.016

RCLGDLLARQTP
protein stability index: 0.635 ± 0.012

RCLRALGLFARS
protein stability index: 0.719 ± 0.008

RCLSISTSLCKV
protein stability index: 0.744 ± 0.052

RCPQHCDLSVYV
protein stability index: 0.681 ± 0.021

RCSAPWFSPYPP
protein stability index: 0.645 ± 0.073

RCSLGWKRFDWR
protein stability index: 0.706 ± 0.061

RCTNSLPSYLSH
protein stability index: 0.675 ± 0.039

RDCPVTPGTLFS
protein stability index: 0.744 ± 0.084

RDGGSTDGGKRR
protein stability index: 0.697 ± 0.024

RDNKIKEGKKKK
protein stability index: 0.682 ± 0.1

RDSERTSGAMLS
protein stability index: 0.689 ± 0.031

REGRRSVWGVSW
protein stability index: 0.685 ± 0.023

REHLSERVPSRA
protein stability index: 0.749 ± 0.057

REKLINEKRIRR
protein stability index: 0.704 ± 0.012

RELGAWSFITSV
protein stability index: 0.705 ± 0.014

RESIEGGGAPRD
protein stability index: 0.747 ± 0.11

REVRRNINKRRE
protein stability index: 0.67 ± 0.11

REVYLFSSSCRG
protein stability index: 0.623 ± 0.027

REWDRRGRSHHF
protein stability index: 0.769 ± 0.069

REWVAGGGVVGV
protein stability index: 0.679 ± 0.031

RFFSGPCCGRSP
protein stability index: 0.6995 ± 0.002

RFGDWALGARVG
protein stability index: 0.72 ± 0.032

RFGGGPCRSVGC
protein stability index: 0.7331 ± 0.0059

RFGRGAGWGLGG
protein stability index: 0.66 ± 0.0092

RFLLNPPLRCPP
protein stability index: 0.747 ± 0.041

RFPLTPSPLRAT
protein stability index: 0.6948 ± 0.0039

RFPRFVVPTRTR
protein stability index: 0.852 ± 0.058

RFRVKSYLYFCP
protein stability index: 0.614 ± 0.03

RFSDGSHLFGDR
protein stability index: 0.524 ± 0.14

RFSTRAVRLGPC
protein stability index: 0.705 ± 0.19

RFTNHPTRQTTG
protein stability index: 0.676 ± 0.088

RFVCVSVCPVRV
protein stability index: 0.487 ± 0.065

RFWFWWVVRDGS
protein stability index: 0.617 ± 0.08

RGCAPDRIPAPV
protein stability index: 0.645 ± 0.023

RGEERGGTRPAG
protein stability index: 0.6788 ± 0.0037

RGEPPSAKEIAR
protein stability index: 0.727 ± 0.045

RGEVSGRVGRVG
protein stability index: 0.684 ± 0.058

RGFRPLGSGILI
protein stability index: 0.689 ± 0.051

RGGDGGGLRTRD
protein stability index: 0.688 ± 0.037

RGGEGTQRRKLR
protein stability index: 0.717 ± 0.077

RGGGAARGGGVG
protein stability index: 0.658 ± 0.009

RGGGGGGQVAVG
protein stability index: 0.711 ± 0.049

RGGGGGRKVSVG
protein stability index: 0.658 ± 0.062

RGGGRGGSRTGA
protein stability index: 0.712 ± 0.033

RGGNVDSRKMNR
protein stability index: 0.722 ± 0.018

RGGPQARRLRPY
protein stability index: 0.706 ± 0.063

RGGVGRLEGCRG
protein stability index: 0.684 ± 0.066

RGGWRGVWGHVV
protein stability index: 0.599 ± 0.033

RGKTIQGNADPK
protein stability index: 0.672 ± 0.032

RGLYQCFLLDIV
protein stability index: 0.472 ± 0.047

RGMVPREKHQNS
protein stability index: 0.683 ± 0.013

RGPARFYVRVSV
protein stability index: 0.498 ± 0.0077

RGPFSGKCEPSM
protein stability index: 0.663 ± 0.049

RGPGAWFVSWWA
protein stability index: 0.7886 ± 0.0029

RGPGMVRAFAEA
protein stability index: 0.679 ± 0.011

RGQTSLTGERNK
protein stability index: 0.701 ± 0.055

RGRCGRLSRAGA
protein stability index: 0.727 ± 0.041

RGRGKRNDPEKR
protein stability index: 0.681 ± 0.036

RGRGSLPGFKSL
protein stability index: 0.654 ± 0.058

RGRTLVVPAPDT
protein stability index: 0.673 ± 0.017

RGSFGAWTVGGQ
protein stability index: 0.59 ± 0.026

RGSIKSYNTRKT
protein stability index: 0.728 ± 0.009

RGTYRYNFSQKK
protein stability index: 0.652 ± 0.12

RGVDVWQGRTVP
protein stability index: 0.6879 ± 0.0031

RGVGGRALGVGR
protein stability index: 0.678 ± 0.038

RGVGGRGIGFPR
protein stability index: 0.6826 ± 0.0058

RGVPWVVFSVGA
protein stability index: 0.542 ± 0.015

RGWGVLCGGGWG
protein stability index: 0.556 ± 0.053

RHDSYKSLHSNL
protein stability index: 0.743 ± 0.05

RHFFRYYLDHPS
protein stability index: 0.617 ± 0.035

RHGDGGRGRVDG
protein stability index: 0.736 ± 0.1

RHIKIADYKTLT
protein stability index: 0.686 ± 0.04

RHILPNKCRLHH
protein stability index: 0.714 ± 0.2

RHKVVLQPRPQV
protein stability index: 0.649 ± 0.039

RHPPVPCIAQIR
protein stability index: 0.658 ± 0.024

RHPTITAPTPTP
protein stability index: 0.748 ± 0.063

RHRLTPLTQYPS
protein stability index: 0.677 ± 0.062

RIGDVIRIAEIK
protein stability index: 0.729 ± 0.069

RIIRPRSTKDHP
protein stability index: 0.745 ± 0.14

RIKKKKKIKRNN
protein stability index: 0.7 ± 0.02

RILLSPLSQSQP
protein stability index: 0.695 ± 0.025

RIPLYAFLPPID
protein stability index: 0.745 ± 0.066

RIPTALLAPYAQ
protein stability index: 0.649 ± 0.03

RKAPLPDRGIPW
protein stability index: 0.708 ± 0.017

RKCDKVGCDEKA
protein stability index: 0.66 ± 0.02

RKEEKKEGKGTR
protein stability index: 0.663 ± 0.062

RKEESKKEKNKI
protein stability index: 0.65 ± 0.11
